# Data as given in the nanobody polyreactivity screen of Harvey et al. (2022).
# Experiment: yeast display, Sf9 membrane polyspecificity reagent, FACS + sequencing; frameworks hold sequencing errors
# In short: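 Galactose-induced (36–48 hours) yeast carrying a synthetic nanobody display library were exposed to 10% biotinylated, detergent-solubilized Sf9 membrane reagent at 4 °C for 1 hour. FACS followed streptavidin microbead enrichment, using low and high (top ~1%) gates for expression (anti-HA) and reagent binding (streptavidin). Colony PCR, MiSeq 2 × 250 sequencing and CDR-length filtering followed. Labels for polyreactivity reflect the gate of origin.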
row,Sequence,polyreactivity (PSR sort gate)
1,QVQLVESGGGLVQAGGSLRLSCAASGRTFNYYAMGWSRQAPGKERELVAAITSGGRTNYADSVKGRFTISRDNAKNTVYLQMNSLKPEDTAVYYCATEYYRYRWVGAFRYPVYYWGQGTQVTVSS,low polyreactivity
2,QVQLVESGGGLVQAGGSLRLSCAASGRTFNYYAMGWYRQAPGKERELVAAISGSGGRTYYADSVKGRFTISRDNAKNTVYLQMNSLKPEDTAVYYCNADVGKYPYAHTYWARRYYYLGQGTQVTVSS,high polyreactivity
3,QVQLVESGGGLVQAGGSLRLSCAASGRTFNYYGMGWYRQAPGKERELVAAINSGDNTYYADSVKGRFTISRDNAKNTVYLQMTSLKPEDTAVYYCNTDAFWYYYSWYDYWGQGTQVTVSS,low polyreactivity
4,QVQLVESGGGLVQAGGSLRLSCAASGRTFNYYTMGWYRQAPGKERELVAAISWSGDSTYYADSVKGRFTISRDNAKNTVYLQMNSLKPEDTAVYYCAAGYASGPRPQTAYYYWGQGTQVTVSS,low polyreactivity
5,QVQLVESGGGLVQAGGSLRLSCAASGRTFPFNAMGWYRQAPGKERELVAVINSGGSTYYADSVKGRFTISRDNAKNTVYLQMNSLKPEDTAVYYCNAYSSRYRYNYWGQGTQVTVSS,high polyreactivity
6,QVQLVESGGGLVQAGGSLRLSCAASGRTFPFYAMGWYRQAPGKEREFVASITRSGGSTNYADSVKGRFTISRDNAKNTVYLQMNSLKPEDTAVYYCNAGAVYWGYSRGWYERDYWGQGTQVTVSS,high polyreactivity
7,QVQLVESGGGLVQAGGSLRLSCAASGRTFPGKAMGWYRQAPGKERELVAAISKSSSRTYYADSVKGRFTISRDNAKNTVYLQMNSLKAEDTAVYYCAASSFNNGHRYDYWGQGTQVTVSS,high polyreactivity
8,QVQLVESGGGLVQAGGSLRLSCAASGRTFPGNAMGWYRQAPGKERELVAAITSSGSTNYADSVKGRFTISRDNAKNTVYLQMNSLKPEDTAVYYCNAAWFYVYGVWILDWGQGTQVTVSS,low polyreactivity
9,QVQLVESGGGLVQAGGSLRLSCAASGRTFPGNAMGWYRQATGKERELVATISSGGTTNYADSVKGRFTISRDNAKNTVYLQMNSLKPEDTAVYYCATDTYHHKADYEYWGQGTQVTVSS,low polyreactivity
10,QVQLVESGGGLVQAGGSLRLSCAASGRTFPGYAMGWYRQAPGTEMEMVAAISSGGGTKYADSVKGRFTISRDNAKYTVYVQMNSLKPEDTAVFYCAARGGTYHWGRYYWRQYDYWGQGTQVTVSS,high polyreactivity
11,QVQLVESGGGLVQAGGSLRLSCAASGRTFPIYAMGWYRQAPGKERELVAAITRGGRTNYADSVKGRFTISRDNAKNTVYLQMNSLKTEDTAVYYCAARSYGTYLYAEYDYWGQGTQVTVSS,high polyreactivity
12,QVQLVESGGGLVQAGGSLRLSCAASGRTFPKYAMGWYRQAPGKERELVAAITWRASRTYYADSVKGRFTISRDYAKITVYLQMNSLKPEDTAVYYCAAKGVGQAPKRDYWGQGTQVNVSS,high polyreactivity
13,QVQLVESGGGLVQAGGSLRLSCAASGRTFPNNAMGWYRQAPGKERELVAAISSGSSTDYADSVKGRFTISRDNAKNTVYLQMNSLKPEDTAVYYCNAGDYTYPGSPWPGYAYDYWGQGTQVTVSS,low polyreactivity
14,QVQLVESGGGLVQAGGSLRLSCAASGRTFPRYAMGWYRQAPGKEMELVAAISVRAGITYYADSVKGRFTISRDNAKNTVYLQMNSLKPEDTAVYYCAKDHWTTSYDEGDYWGQGTQVTVSS,low polyreactivity
15,QVQLVESGGGLVQAGGSLRLSCAASGRTFPRYGMGWYRQAPGKERELVATIRTGGRTNYADSVKGRFTISRDNAKNTVYLQMNSLKPEDTAVYYCATDSSKHPYSPTLLKFDYWGQGTQVTVSS,low polyreactivity
16,QVQLVESGGGLVQAGGSLRLSCAASGRTFPRYVMGWYRPAPGKERELVASITSSGGSTYYADSVKGRLTISRDNAKNTVYLQMNSLKPEDTAVYYCAAYARPNSGPYAYRLDYWGQGTQVTVSS,high polyreactivity
17,QVQLVESGGGLVQAGGSLRLSCAASGRTFPRYVMGWYRQAPGKERELVAAITSSGGSTYYADSVKGRFTISRDNAKNTVYLQMNSLKPEDTAVYYCAAYARPYSGPYAYRLDYWGQGTQVTVSS,high polyreactivity
18,QVQLVESGGGLVQAGGSLRLSCAASGRTFPSNVMGRYIQAHGKERELVAGITWRGGSTYYADSVKGRFTISRDNAKYTVYLQINSLKPEDTAVYYCAVRTQYRRYEYWGHGTQVTVSS,high polyreactivity
19,QVQLVESGGGLVQAGGSLRLSCAASGRTFPSYAMGWYRQAPGKERELVAAITRGGSTNYADSVKGRFTISRDNAKNTVYLQMNSLKPEDTAVYYCAAARWRWQLARDDYWGEGTQVTVSS,high polyreactivity
20,QVQLVESGGGLVQAGGSLRLSCAASGRTFPSYAMGWYRQAPGKERELVAGIRWGAGRTYYADSVKGRFTISRDNAKNTVYLQMNSLKPEVTAVYYCAADPWSGSDYWGQGTQVTVSS,low polyreactivity
21,QVQLVESGGGLVQAGGSLRLSCAASGRTFPSYAMGWYRQAPGKERELVAVIRGGGSTKYADSVKGRFTISRDNAKNTVYLQMNSLKPEDTAVYYCATRGYPKFNYIYYYWGQGTQVTVSS,high polyreactivity
22,QVQLVESGGGLVQAGGSLRLSCAASGRTFPSYTMGWYRQAPGKERELVAPNDGGGDTYYADSVKGRFTISRDNAKNSVYLQMKSLKPEDTAVYYCRDWYPSYWYYYYAEYDYWGQGTQVTVSS,high polyreactivity

row,Sequence,polyreactivity (PSR sort gate)
1,QVQLVESGGGLVQAGGSLRLSCAASGRTFPVNAMGWYRQAPAKQSELVATISWSGGSTYYADSVKGRFTISRDNAKNTVYLQMNSLKPEDTAVYYCAALGRHYRYDYWGQGTQVTVSS,low polyreactivity
2,QVQLVESGGGLVQAGGSLRLSCAASGRTFPVYAMGWYRQAPGKERELVAAIRGRSVRTYYADSVNGRFTISRDNAKNTVYLQMNSLKPEDTAVYYCAAYYFNPGMDYWGQGTQVTVSS,high polyreactivity
3,QVQLVESGGGLVQAGGSLRLSCAASGRTFPVYAMGWYRQAPGQERELVAAINTSGTSTYYADSVKGRFTISRDNAKNTVYLQMNSLKPEDTAVYYCATRYRYTYYWGQGTQVTVSS,high polyreactivity
4,QVQLVESGGGLVQAGGSLRLSCAASGRTFPWYAMGWYRQAPGKERELVAAISWTGGSTYYADSVKGRFTISRDNAKNTVYLQMNSLKPEDTAVYYCAASPWYLKYEYWGQGTQVTVSS,low polyreactivity
5,QVQLVESGGGLVQAGGSLRLSCAASGRTFPYNAMGWYRQATGKERELVATINTSGASTSYADSVKRRFTISRDNEKNTVYLQMNSLKPEVTAVYYCNRDRRYYHRFDYWGQGTQVTVSS,low polyreactivity
6,QVQLVESGGGLVQAGGSLRLSCAASGRTFPYYAMGLYRQAPGKERELVATITRGGSTYYADSVKGRFTISRDNAKNTVYLQMNSLKPEDTAVYYCAVDAYYEMDYWGQGTQLTVSS,low polyreactivity
7,QVQLVESGGGLVQAGGSLRLSCAASGRTFPYYAMGWYRQAPGKERELVAAISSSGGGTYYADSVKGRFTISRDNAKNTVYLQMNSLKPEDTAVYYCNAVSYYQDSFYYWGQGTQVTVSS,high polyreactivity
8,QVQLVESGGGLVQAGGSLRLSCAASGRTFPYYAMGWYRQAPGKERELVAAISSSGGSTYYADSVKGRFTISRDNAKNTVYLQMNSLKPEDTAVYYCAATRGWLHSFARDDHDYWGQGTQVTVSS,high polyreactivity
9,QVQLVESGGGLVQAGGSLRLSCAASGRTFPYYAMGWYRQAPGKERELVAAITGSGGRTYYADSVKGRFTISRDNAKNTVYLQMNRLKPEDTAVYYCATDRGYYTWRYGRNDYWGQGTLVTVSS,high polyreactivity
10,QVQLVESGGGLVQAGGSLRLSCAASGRTFPYYAMGWYRQATGKERELVAAIRSSGDRTYYADSVKGRFTISRDNAKNTVYLQMNSLKPEDTAVYYCNKVFLRSRRYYWGQGTQVTVSS,high polyreactivity
11,QVQLVESGGGLVQAGGSLRLSCAASGRTFPYYVMGWNRQAPRKERELVATISSSGRTYYADSVKGRFTISRDNAKNTVYLQMNSLNPEDTSVYYCAARFRWNQNYHFYYWGQGTQVTVSS,high polyreactivity
12,QVQLVESGGGLVQAGGSLRLSCAASGRTFQANAMGWYRQAPGTERELVAAITGRGGTTYYADSVKGRFTISRDTAKNTVYVQMYSLKPEDTAVYYCALALSGYGFWGYDYWGLGTQVTVSS,low polyreactivity
13,QVQLVESGGGLVQAGGSLRLSCAASGRTFQEYAMGWYRQAPGKERELVADISDGGSTNYADSVKGRFTISRDNAKNTVYLQMNSLKPEDTAVYYCAADQYHGVGINFRSDYDYWGQGTQVTVSS,low polyreactivity
14,QVQLVESGGGLVQAGGSLRLSCAASGRTFQFYAMGWYRPAPGKERELVAAITYSGDSTYYADSVKGRFTISRDNAKNTVYLQMNSLKPEDTAVYYCAAGVWFYWYEYDYWGQGTQVTVSS,high polyreactivity
15,QVQLVESGGGLVQAGGSLRLSCAASGRTFQINAMGWYRQAPGKERELVAAITWSGGSTYYADSVKRRFTISPDNAKNPVYLQMNSLKPADTALYYCNTRYRAYATLNLIAGYNSWGQGTQVTVSS,low polyreactivity
16,QVQLVESGGGLVQAGGSLRLSCAASGRTFQLNAMGCYRQAPGKERELVAAISTRGGSTYYADSVKGRFTISRDNAKNTVYLQMNSLKPEDTAVYYCAKDPSFTRGYKDGGGYDYWGQGTQVTVSS,high polyreactivity
17,QVQLVESGGGLVQAGGSLRLSCAASGRTFQLNAMGWYRQAPGKEREFVATISTGGGGTFYADSVKGRFTISRDNAKNTVYLQMNSLKPEDTAVYYCNAGGETYIFRDLRHDYWGQGTQVTVSS,low polyreactivity
18,QVQLVESGGGLVQAGGSLRLSCAASGRTFQLYAMGWYRQAPGKERELVAAITSGGNTYYADSVKGRFTISRDNAKNTVYLQMNSLKPVDTAVYYCFLYYSRSMGYWGQGTQVTVSS,high polyreactivity
19,QVQLVESGGGLVQAGGSLRLSCAASGRTFQQNAMGWYRQAPGKERELVATIRNGGNTNYADSVKGRFTISRDNAKNTVYLQLNSLKPEDTAVYYSAARVYTHGLWGYNYWGQGTQVTVSS,high polyreactivity
20,QVQLVESGGGLVQAGGSLRLSCAASGRTFQSNAMGWYRQAPGNERELVAAISRRGGSTYYADSVKGRFTISRDNEKNTVYLQMNCLKPEDTAVYYCNRDAKAGDWGQGTQVTVSS,high polyreactivity
21,QVQLVESGGGLVQAGGSLRLSCAASGRTFQSYAMGWYRQAPGKERELVASITSGASTNYADSVKGRFTISRDNAKNTVYLQMNSLKPEDTAVYYCARRIGHGSRPYWLETWRYPYDYWGQGTQVTVSS,low polyreactivity
